Assay results as given in patent publication US12139531B2, “Compositions and methods useful in promoting milk production” (The Regents of the University of California, priority 2019, dated 2024).

What was measured:
DCC = target: T1, DCC (Homo sapiens, UniProt P43146); assay: ECD binding assay on cells overexpressing DCC
T1 construct: expressed in transfected cells
Method: FIG. 6: ROBO1 extracellular domains. (A) Cartoon showing domain structure of the ROBO1 extracellular domain (ECD) panel (B) Western blot of ROBO1 ECDs and control DCC ECDs in lysates and conditioned media of HEK cells overexpressing plasmid constructs. (C) Dot blot assay of media (left) and quantification (right) of ROBO1-Ig5 secretion from HEK cells overexpressing Robo-Ig5 in the absence and presence of heparin (300 ng/ml). […] (F) ECD binding assay using ROBO1-Ecto and cells overexpressing ROBO2 (top, green) and cells overexpressing DCC (bottom, green). ROBO1-Ecto-HA (red) binds to ROBO2, but not to DCC.

ROBO2 = target: T2, ROBO2 (Homo sapiens, UniProt Q9HCK4); assay: ECD binding assay on Cos7 cells overexpressing Robo2; settings: Cos7 cells overexpressing Robo2, sodium azide, 1H incubation, immunostaining
T2 construct: expressed in transfected cells; host or cells: Cos7
T2 sequence (Q9HCK4 22-1378): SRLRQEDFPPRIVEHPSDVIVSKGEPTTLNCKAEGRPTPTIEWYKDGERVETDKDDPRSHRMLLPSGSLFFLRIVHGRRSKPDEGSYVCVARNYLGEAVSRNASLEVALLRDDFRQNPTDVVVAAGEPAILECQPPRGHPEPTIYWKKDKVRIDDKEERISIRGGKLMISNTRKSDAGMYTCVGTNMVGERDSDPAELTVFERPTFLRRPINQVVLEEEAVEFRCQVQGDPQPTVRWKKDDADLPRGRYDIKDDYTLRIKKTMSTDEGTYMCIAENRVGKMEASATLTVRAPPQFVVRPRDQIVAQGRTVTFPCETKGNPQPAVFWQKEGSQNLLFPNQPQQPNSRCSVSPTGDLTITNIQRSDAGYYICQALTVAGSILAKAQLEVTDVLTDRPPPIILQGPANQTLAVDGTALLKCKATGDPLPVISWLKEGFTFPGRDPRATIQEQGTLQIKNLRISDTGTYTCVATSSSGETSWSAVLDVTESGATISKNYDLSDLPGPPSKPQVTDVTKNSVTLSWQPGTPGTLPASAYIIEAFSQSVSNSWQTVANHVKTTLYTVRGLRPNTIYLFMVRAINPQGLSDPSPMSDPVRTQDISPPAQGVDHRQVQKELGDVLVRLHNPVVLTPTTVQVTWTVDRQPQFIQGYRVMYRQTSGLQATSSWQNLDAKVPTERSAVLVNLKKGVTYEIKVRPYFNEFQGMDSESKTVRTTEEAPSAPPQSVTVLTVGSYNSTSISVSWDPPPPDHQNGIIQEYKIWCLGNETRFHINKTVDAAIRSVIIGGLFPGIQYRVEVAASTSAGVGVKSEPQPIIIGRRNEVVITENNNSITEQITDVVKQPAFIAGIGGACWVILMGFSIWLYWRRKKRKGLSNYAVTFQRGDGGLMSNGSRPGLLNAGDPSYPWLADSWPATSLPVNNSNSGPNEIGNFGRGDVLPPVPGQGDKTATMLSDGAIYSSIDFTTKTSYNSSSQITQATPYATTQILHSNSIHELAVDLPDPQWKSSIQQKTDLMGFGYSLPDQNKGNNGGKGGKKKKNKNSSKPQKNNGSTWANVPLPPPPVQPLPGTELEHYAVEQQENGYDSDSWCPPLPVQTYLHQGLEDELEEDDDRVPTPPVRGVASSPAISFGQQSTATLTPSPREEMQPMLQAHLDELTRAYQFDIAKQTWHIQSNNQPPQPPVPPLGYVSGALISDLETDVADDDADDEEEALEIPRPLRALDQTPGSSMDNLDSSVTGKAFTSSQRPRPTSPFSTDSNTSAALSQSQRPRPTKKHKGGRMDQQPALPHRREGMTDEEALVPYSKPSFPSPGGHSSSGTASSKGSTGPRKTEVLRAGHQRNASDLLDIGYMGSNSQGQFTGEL
Method: Soluble ROBO1 ECD fragments ROBO1-Ig2 and ROBO1-Ig5 generated in the presence of heparin were used in a dome assay. […] Because treatment with heparin had only a modest positive effect on ROBO1 ECD production and a deleterious effect on their function (FIG. 6C, E), the use of heparin to generate soluble ROBO1 ECD fragments was not pursued. The ability of a ROBO1 ECD fragment to bind ROBO2 receptors was tested by overexpressing Robo2 in Cos7 cells, treating cells with sodium azide to prevent protein internalization and then incubating cells with ROBO1-Ecto-HA 1H prior to fixation and immunostaining.

T1 sequence (P43146 26-1447, species assumed): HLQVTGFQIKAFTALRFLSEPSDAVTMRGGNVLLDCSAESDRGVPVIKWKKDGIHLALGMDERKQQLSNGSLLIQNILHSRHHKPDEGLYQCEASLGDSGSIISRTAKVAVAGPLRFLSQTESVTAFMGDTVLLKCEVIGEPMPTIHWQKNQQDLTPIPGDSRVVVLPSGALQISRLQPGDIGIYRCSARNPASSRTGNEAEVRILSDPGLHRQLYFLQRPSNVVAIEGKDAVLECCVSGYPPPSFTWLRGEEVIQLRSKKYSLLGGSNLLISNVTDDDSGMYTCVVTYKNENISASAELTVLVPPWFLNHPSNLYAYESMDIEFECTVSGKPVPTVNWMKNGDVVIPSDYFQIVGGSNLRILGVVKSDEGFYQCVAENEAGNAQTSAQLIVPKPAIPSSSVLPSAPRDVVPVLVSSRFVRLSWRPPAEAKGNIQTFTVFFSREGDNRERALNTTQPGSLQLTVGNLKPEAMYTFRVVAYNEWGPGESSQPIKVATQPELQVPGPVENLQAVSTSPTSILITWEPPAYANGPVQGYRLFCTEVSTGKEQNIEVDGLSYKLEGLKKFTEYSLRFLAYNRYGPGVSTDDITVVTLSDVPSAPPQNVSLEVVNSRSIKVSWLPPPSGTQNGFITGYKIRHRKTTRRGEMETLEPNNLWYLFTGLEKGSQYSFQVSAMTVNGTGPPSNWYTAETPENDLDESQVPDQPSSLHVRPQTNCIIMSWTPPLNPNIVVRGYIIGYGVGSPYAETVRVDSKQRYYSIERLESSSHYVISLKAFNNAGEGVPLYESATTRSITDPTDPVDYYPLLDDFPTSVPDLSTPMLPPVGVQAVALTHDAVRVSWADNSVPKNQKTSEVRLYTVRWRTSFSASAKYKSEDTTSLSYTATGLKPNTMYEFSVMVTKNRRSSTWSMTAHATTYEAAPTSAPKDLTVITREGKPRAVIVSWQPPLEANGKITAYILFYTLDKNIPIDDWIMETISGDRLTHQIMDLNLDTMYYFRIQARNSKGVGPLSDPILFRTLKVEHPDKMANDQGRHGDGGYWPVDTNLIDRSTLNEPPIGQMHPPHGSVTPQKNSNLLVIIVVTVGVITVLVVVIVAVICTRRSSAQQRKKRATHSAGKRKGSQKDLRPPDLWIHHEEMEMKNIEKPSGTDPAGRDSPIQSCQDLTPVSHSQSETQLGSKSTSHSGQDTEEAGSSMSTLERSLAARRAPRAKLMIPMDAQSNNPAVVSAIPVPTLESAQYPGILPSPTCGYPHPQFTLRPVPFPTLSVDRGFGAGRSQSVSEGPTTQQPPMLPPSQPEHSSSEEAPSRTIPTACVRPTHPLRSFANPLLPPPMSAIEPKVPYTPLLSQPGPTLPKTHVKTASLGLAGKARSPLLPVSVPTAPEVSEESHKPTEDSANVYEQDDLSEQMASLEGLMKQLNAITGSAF

B1: ROBO1-Ecto-HA: ROBO1-Ecto fused to HA (hemagglutinin) tag (protein)
chain: SRLRQEDFPPRIVEHPSDLIVSKGEPATLNCKAEGRPTPTIEWYKGGERVETDKDDPRSHRMLLPSGSLFFLRIVHGRKSRPDEGVYICVARNYLGEAVSHNASLEVAILRDDFRQNPSDVMVAVGEPAVMECQPPRGHPEPTISWKKDGSPLDDKDERITIRGGKLMITYTRKSDAGKYVCVGTNMVGERESEVAELTVLERPSFVKRPSNLAVTVDDSAEFKCEARGDPVPTVRWRKDDGELPKSRYEIRDDHTLKIRKVTAGDMGSYTCVAENMVGKAEASATLTVQEPPHFVVKPRDQVVALGRTVTFQCEATGNPQPAIFWRREGSQNLLFSYQPPQSSSRFSVSQTGDLTVTNVQRSDVGYYICQTLNVAGSIITKAYLEVTDVIADRPPPVIRQGPVNQTVAVDGTLTLSCVATGSPVPTILWRKDGVLVSTQDSRIKQLESGVLQIRYAKLGDTGRYTCTASTPSGEATWSAYIEVQEFGVPVQPPRPTDPNLIPSAPSKPEVTDVSKNTVTLLWQPNLNSGATPTSYIIEAFSHASGSSWQTVAENVKTETFAIKGLKPNAIYLFLVRAANAYGISDPSQISDPVKTQDVPPTTQGVDHKQVQRELGNVVLHLHNPTILSSSSVEVHWTVDQQSQYIQGYKILYRPSGASHGESEWLVFEVRTPTKNSVVIPDLRKGVNYEIKARPFFNEFQGADSEIKFAKTLEEAPSAPPRSVTVSKNDGNGTAILVTWQPPPEDTQNGMVQEYKVWCLGNETRYHINKTVDGSTFSVVIPSLVPGIRYSVEVAASTGAGPGVKSEPQF
modifications: left off: small tags and cut ends
notes: ROBO1-Ecto fused to HA (hemagglutinin) tag
For B1, which “binding to DCC” value (DCC) is on record?
Its value is “not to DCC”.

What about the “binding to ROBO2” value (ROBO2) of the same molecule?
The value was “binds”.
